B1: target 3 G3C,C6A (mixed)
RNA 1: CACCCGUGCAAAAUUGCAGGGGUCUAAAACGACCUGAAUAUUUCAGAUCAAA
RNA 2: GGGAAUGGAUCCACAUCUACGAAUUCGUUUUUGAUCUGAAAUAUUAAGCUCUGCAGAUCGGAAGAGCACACGU
B2: target 3 insU 3' of 6,insC 3' of 5 (mixed)
RNA 1: CACCCGUGCAAAAUUGCAGGGGUCUAAAACGACCUGAAUAUUUCAGAUCAAA
RNA 2: GGGAAUGGAUCCACAUCUACGAAUUCGUUUUUGAUCUGAAAUAUUCUACGGUCUGCAGAUCGGAAGAGCACACGU
B3: target 3 U7G,U8C (mixed)
RNA 1: CACCCGUGCAAAAUUGCAGGGGUCUAAAACGACCUGAAUAUUUCAGAUCAAA
RNA 2: GGGAAUGGAUCCACAUCUACGAAUUCGUUUUUGAUCUGAAAUACGCAGGUCUGCAGAUCGGAAGAGCACACGU
B4: target 3 G4A,U8A (mixed)
RNA 1: CACCCGUGCAAAAUUGCAGGGGUCUAAAACGACCUGAAUAUUUCAGAUCAAA
RNA 2: GGGAAUGGAUCCACAUCUACGAAUUCGUUUUUGAUCUGAAAUAAUCAAGUCUGCAGAUCGGAAGAGCACACGU
B5: target 3 C1U,U21A (mixed)
RNA 1: CACCCGUGCAAAAUUGCAGGGGUCUAAAACGACCUGAAUAUUUCAGAUCAAA
RNA 2: GGGAAUGGAUCCACAUCUACGAAUUCGUUUAUGAUCUGAAAUAUUCAGGUUUGCAGAUCGGAAGAGCACACGU
B6: target 3 G3C,U7G (mixed)
RNA 1: CACCCGUGCAAAAUUGCAGGGGUCUAAAACGACCUGAAUAUUUCAGAUCAAA
RNA 2: GGGAAUGGAUCCACAUCUACGAAUUCGUUUUUGAUCUGAAAUAUGCAGCUCUGCAGAUCGGAAGAGCACACGU
B7: target 3 insA 3' of 7,insA 3' of 7 (mixed)
RNA 1: CACCCGUGCAAAAUUGCAGGGGUCUAAAACGACCUGAAUAUUUCAGAUCAAA
RNA 2: GGGAAUGGAUCCACAUCUACGAAUUCGUUUUUGAUCUGAAAUAUUAACAGGUCUGCAGAUCGGAAGAGCACACGU
B8: target 3 insG 3' of 2,insG 3' of 1 (mixed)
RNA 1: CACCCGUGCAAAAUUGCAGGGGUCUAAAACGACCUGAAUAUUUCAGAUCAAA
RNA 2: GGGAAUGGAUCCACAUCUACGAAUUCGUUUUUGAUCUGAAAUAUUCAGGUGCGUGCAGAUCGGAAGAGCACACGU
B9: target 3 insU 3' of 14,insG 3' of 2 (mixed)
RNA 1: CACCCGUGCAAAAUUGCAGGGGUCUAAAACGACCUGAAUAUUUCAGAUCAAA
RNA 2: GGGAAUGGAUCCACAUCUACGAAUUCGUUUUUGAUCUGUAAAUAUUCAGGUGCUGCAGAUCGGAAGAGCACACGU
B10: target 3 G3U,A9G (mixed)
RNA 1: CACCCGUGCAAAAUUGCAGGGGUCUAAAACGACCUGAAUAUUUCAGAUCAAA
RNA 2: GGGAAUGGAUCCACAUCUACGAAUUCGUUUUUGAUCUGAAAUGUUCAGUUCUGCAGAUCGGAAGAGCACACGU
B11: target 3 C1G,G3U (mixed)
RNA 1: CACCCGUGCAAAAUUGCAGGGGUCUAAAACGACCUGAAUAUUUCAGAUCAAA
RNA 2: GGGAAUGGAUCCACAUCUACGAAUUCGUUUUUGAUCUGAAAUAUUCAGUUGUGCAGAUCGGAAGAGCACACGU
B12: target 3 A18G,U21C (mixed)
RNA 1: CACCCGUGCAAAAUUGCAGGGGUCUAAAACGACCUGAAUAUUUCAGAUCAAA
RNA 2: GGGAAUGGAUCCACAUCUACGAAUUCGUUUCUGGUCUGAAAUAUUCAGGUCUGCAGAUCGGAAGAGCACACGU
B13: target 3 insA 3' of 2,insG 3' of 2 (mixed)
RNA 1: CACCCGUGCAAAAUUGCAGGGGUCUAAAACGACCUGAAUAUUUCAGAUCAAA
RNA 2: GGGAAUGGAUCCACAUCUACGAAUUCGUUUUUGAUCUGAAAUAUUCAGGUAGCUGCAGAUCGGAAGAGCACACGU
B14: target 3 insG 3' of 7,insG 3' of 7 (mixed)
RNA 1: CACCCGUGCAAAAUUGCAGGGGUCUAAAACGACCUGAAUAUUUCAGAUCAAA
RNA 2: GGGAAUGGAUCCACAUCUACGAAUUCGUUUUUGAUCUGAAAUAUUGGCAGGUCUGCAGAUCGGAAGAGCACACGU
B15: target 3 C6A,U22A (mixed)
RNA 1: CACCCGUGCAAAAUUGCAGGGGUCUAAAACGACCUGAAUAUUUCAGAUCAAA
RNA 2: GGGAAUGGAUCCACAUCUACGAAUUCGUUAUUGAUCUGAAAUAUUAAGGUCUGCAGAUCGGAAGAGCACACGU
B16: target 3 insC 3' of 7,insC 3' of 4 (mixed)
RNA 1: CACCCGUGCAAAAUUGCAGGGGUCUAAAACGACCUGAAUAUUUCAGAUCAAA
RNA 2: GGGAAUGGAUCCACAUCUACGAAUUCGUUUUUGAUCUGAAAUAUUCCAGCGUCUGCAGAUCGGAAGAGCACACGU
B17: target 3 G3C,A5G (mixed)
RNA 1: CACCCGUGCAAAAUUGCAGGGGUCUAAAACGACCUGAAUAUUUCAGAUCAAA
RNA 2: GGGAAUGGAUCCACAUCUACGAAUUCGUUUUUGAUCUGAAAUAUUCGGCUCUGCAGAUCGGAAGAGCACACGU
B18: target 3 insG 3' of 18,insU 3' of 1 (mixed)
RNA 1: CACCCGUGCAAAAUUGCAGGGGUCUAAAACGACCUGAAUAUUUCAGAUCAAA
RNA 2: GGGAAUGGAUCCACAUCUACGAAUUCGUUUUUGAGUCUGAAAUAUUCAGGUCUUGCAGAUCGGAAGAGCACACGU
B19: target 3 insA 3' of 8,insC 3' of 3 (mixed)
RNA 1: CACCCGUGCAAAAUUGCAGGGGUCUAAAACGACCUGAAUAUUUCAGAUCAAA
RNA 2: GGGAAUGGAUCCACAUCUACGAAUUCGUUUUUGAUCUGAAAUAUAUCAGGCUCUGCAGAUCGGAAGAGCACACGU
B20: target 3 insA 3' of 22,insU 3' of 6 (mixed)
RNA 1: CACCCGUGCAAAAUUGCAGGGGUCUAAAACGACCUGAAUAUUUCAGAUCAAA
RNA 2: GGGAAUGGAUCCACAUCUACGAAUUCGUUUAUUGAUCUGAAAUAUUCUAGGUCUGCAGAUCGGAAGAGCACACGU
B21: target 3 insU 3' of 5,insC 3' of 5 (mixed)
RNA 1: CACCCGUGCAAAAUUGCAGGGGUCUAAAACGACCUGAAUAUUUCAGAUCAAA
RNA 2: GGGAAUGGAUCCACAUCUACGAAUUCGUUUUUGAUCUGAAAUAUUCAUCGGUCUGCAGAUCGGAAGAGCACACGU
B22: target 3 insC 3' of 22,insG 3' of 22 (mixed)
RNA 1: CACCCGUGCAAAAUUGCAGGGGUCUAAAACGACCUGAAUAUUUCAGAUCAAA
RNA 2: GGGAAUGGAUCCACAUCUACGAAUUCGUUUCGUUGAUCUGAAAUAUUCAGGUCUGCAGAUCGGAAGAGCACACGU
B23: target 3 insA 3' of 10,insC 3' of 8 (mixed)
RNA 1: CACCCGUGCAAAAUUGCAGGGGUCUAAAACGACCUGAAUAUUUCAGAUCAAA
RNA 2: GGGAAUGGAUCCACAUCUACGAAUUCGUUUUUGAUCUGAAAUAAUCUCAGGUCUGCAGAUCGGAAGAGCACACGU
B24: target 3 insU 3' of 13,insC 3' of 3 (mixed)
RNA 1: CACCCGUGCAAAAUUGCAGGGGUCUAAAACGACCUGAAUAUUUCAGAUCAAA
RNA 2: GGGAAUGGAUCCACAUCUACGAAUUCGUUUUUGAUCUGAUAAUAUUCAGGCUCUGCAGAUCGGAAGAGCACACGU
B25: target 3 A5G,C6G (mixed)
RNA 1: CACCCGUGCAAAAUUGCAGGGGUCUAAAACGACCUGAAUAUUUCAGAUCAAA
RNA 2: GGGAAUGGAUCCACAUCUACGAAUUCGUUUUUGAUCUGAAAUAUUGGGGUCUGCAGAUCGGAAGAGCACACGU
B26: target 1 insA 3' of 17,insG 3' of 4 (mixed)
RNA 1: CACCCGUGCAAAAAUGCAGGGGUCUAAAACUGAGCGGAUAACCUCUCUAUGG
RNA 2: GGGAAUGGAUCCACAUCUACGAAUUCGUACCAUAGAAGAGGUUAUCCGCGUCACCGAGAUCGGAAGAGCACACGU
B27: target 1 A16C,C21U (mixed)
RNA 1: CACCCGUGCAAAAAUGCAGGGGUCUAAAACUGAGCGGAUAACCUCUCUAUGG
RNA 2: GGGAAUGGAUCCACAUCUACGAAUUCGUACUAUAGCGAGGUUAUCCGCUCACCGAGAUCGGAAGAGCACACGU

The target of this series is T1, EsCas13d, nuclease-dead (Eubacterium siraeum, UniProt B0MS50, R295A;H300A;R849A;H854A).
T1 sequence: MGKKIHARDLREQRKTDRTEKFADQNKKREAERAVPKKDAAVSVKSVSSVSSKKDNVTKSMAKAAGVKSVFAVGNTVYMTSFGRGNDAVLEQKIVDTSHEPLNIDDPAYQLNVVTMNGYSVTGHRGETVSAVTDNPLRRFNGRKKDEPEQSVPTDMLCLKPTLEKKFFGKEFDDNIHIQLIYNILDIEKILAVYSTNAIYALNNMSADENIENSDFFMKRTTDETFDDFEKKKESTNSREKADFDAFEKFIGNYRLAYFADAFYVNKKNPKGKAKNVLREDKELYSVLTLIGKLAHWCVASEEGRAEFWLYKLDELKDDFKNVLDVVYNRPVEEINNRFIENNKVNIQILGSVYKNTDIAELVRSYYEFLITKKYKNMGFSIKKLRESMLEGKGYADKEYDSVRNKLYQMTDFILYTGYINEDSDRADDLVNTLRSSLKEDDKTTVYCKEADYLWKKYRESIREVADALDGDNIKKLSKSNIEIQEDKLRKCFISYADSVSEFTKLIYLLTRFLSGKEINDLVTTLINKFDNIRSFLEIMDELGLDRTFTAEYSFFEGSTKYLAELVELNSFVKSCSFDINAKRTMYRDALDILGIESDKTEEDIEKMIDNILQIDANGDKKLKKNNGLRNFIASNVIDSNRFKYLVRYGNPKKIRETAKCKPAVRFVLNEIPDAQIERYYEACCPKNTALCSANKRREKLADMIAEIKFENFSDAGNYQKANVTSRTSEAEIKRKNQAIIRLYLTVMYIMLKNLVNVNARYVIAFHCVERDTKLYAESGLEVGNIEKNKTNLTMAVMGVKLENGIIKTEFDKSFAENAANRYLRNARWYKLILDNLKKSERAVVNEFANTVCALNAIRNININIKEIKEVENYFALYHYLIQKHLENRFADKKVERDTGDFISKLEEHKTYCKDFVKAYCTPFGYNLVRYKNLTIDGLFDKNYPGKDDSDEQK
Nature of the series: crRNA (strand 1, pre-loaded); Mg2+; 40 mM Tris-HCl pH 7.5, 150 mM NaCl, 6 mM MgCl2, 1 mM DTT, 0.1% Tween-20, 0.2 mg/ml BSA; 25 C; 10 min per concentration, then washed. Conditions: tags: His6-TwinStrep-SUMO cleaved; N-terminal SNAP kept (SNAP-Surface 488); label: 3' end held by stalled T7 RNA polymerase.
On to B1, for which the Kd – broadly, the equilibrium constant for the complex coming apart – worked out at 27 ± 2 nM.

For B2, binding was characterised by a dissociation constant (Kd) of 15.4 ± 1.45 nM. Molecule B3 came in with a Kd of 70 ± 11 nM. Take B4: the affinity, expressed as Kd, was 76.5 ± 9.5 nM. With B5 the figure was 84 ± 26 nM; with B6, 60 ± 7.5 nM; with B7, 38 ± 5.5 nM. B8 yielded a Kd of 25.6 ± 4.25 nM. With B9 the figure was 33.5 ± 11 nM; with B10, 67.5 ± 12 nM. In turn, B11 registered a Kd of 18.6 ± 3.35 nM. Molecule B12 had a Kd of 75 ± 26 nM. With B13, binding was put at a Kd of 20.9 ± 2.15 nM. B14: the Kd turned out to be 41.5 ± 5.5 nM. For the molecule B15, the affinity, expressed as Kd, was 59.5 ± 6.5 nM. B16: binding was put at a Kd of 74.5 ± 15 nM. For B17, the Kd turned out to be 16.1 ± 1.4 nM. As for B18, binding was characterised by a dissociation constant (Kd) of 82.5 ± 17 nM. Turning to B19, binding was characterised by a dissociation constant (Kd) of 43 ± 7 nM. With B20, the Kd is 32.5 ± 5.5 nM.

B21 gave a Kd of 6.59 ± 0.54 nM. In turn, B22 displayed a Kd of 65.5 ± 21.5 nM. For the molecule B23, the Kd was 102 ± 37 nM. Molecule B24 had a Kd of 86.5 ± 19.5 nM. With B25 the figure was 20.4 ± 1.75 nM; with B26, 10.2 ± 0.4 nM; with B27, 8.5 ± 0.6 nM.

Values taken from publication PMC10786891, “Massively parallel profiling of RNA-targeting CRISPR-Cas13d”.
